Reference: doi:10.1101/2023.07.17.549284

Target: T1, ACADVL (mouse (endogenous in heart and kidney)), P50544
T1 chain: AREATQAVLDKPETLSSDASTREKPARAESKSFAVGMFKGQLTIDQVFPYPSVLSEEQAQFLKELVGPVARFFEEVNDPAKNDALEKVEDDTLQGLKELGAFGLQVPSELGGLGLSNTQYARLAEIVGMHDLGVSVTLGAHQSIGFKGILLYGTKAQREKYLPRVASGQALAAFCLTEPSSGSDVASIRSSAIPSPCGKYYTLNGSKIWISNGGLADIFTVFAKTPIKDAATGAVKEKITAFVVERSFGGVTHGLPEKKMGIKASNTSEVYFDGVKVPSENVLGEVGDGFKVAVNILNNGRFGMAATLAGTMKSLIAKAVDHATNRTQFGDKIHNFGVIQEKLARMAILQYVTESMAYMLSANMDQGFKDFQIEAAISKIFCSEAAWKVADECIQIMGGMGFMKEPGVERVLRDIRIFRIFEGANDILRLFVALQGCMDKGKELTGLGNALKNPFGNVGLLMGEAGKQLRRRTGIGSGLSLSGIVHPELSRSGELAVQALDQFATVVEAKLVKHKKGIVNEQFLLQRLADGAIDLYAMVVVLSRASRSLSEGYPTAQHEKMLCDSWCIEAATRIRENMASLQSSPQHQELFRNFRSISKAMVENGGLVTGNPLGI
Test: cryo-EM structure
Conditions: remark: other sources report otherwise

stoichiometry N: 2
B1: ACADVL, P50544 42-656 (natural protein)
chain: AREATQAVLDKPETLSSDASTREKPARAESKSFAVGMFKGQLTIDQVFPYPSVLSEEQAQFLKELVGPVARFFEEVNDPAKNDALEKVEDDTLQGLKELGAFGLQVPSELGGLGLSNTQYARLAEIVGMHDLGVSVTLGAHQSIGFKGILLYGTKAQREKYLPRVASGQALAAFCLTEPSSGSDVASIRSSAIPSPCGKYYTLNGSKIWISNGGLADIFTVFAKTPIKDAATGAVKEKITAFVVERSFGGVTHGLPEKKMGIKASNTSEVYFDGVKVPSENVLGEVGDGFKVAVNILNNGRFGMAATLAGTMKSLIAKAVDHATNRTQFGDKIHNFGVIQEKLARMAILQYVTESMAYMLSANMDQGFKDFQIEAAISKIFCSEAAWKVADECIQIMGGMGFMKEPGVERVLRDIRIFRIFEGANDILRLFVALQGCMDKGKELTGLGNALKNPFGNVGLLMGEAGKQLRRRTGIGSGLSLSGIVHPELSRSGELAVQALDQFATVVEAKLVKHKKGIVNEQFLLQRLADGAIDLYAMVVVLSRASRSLSEGYPTAQHEKMLCDSWCIEAATRIRENMASLQSSPQHQELFRNFRSISKAMVENGGLVTGNPLGI
